Target: T1, 生物素化Zaire GP蛋白 (pIRES-Zaire GP-BirA-FLAG SP-) (Ebola virus (EBOV) subtype Zaire, UniProt Q05320 33-676)
T1 construct: range 33-676; also called Zaire-GP-Biotin; Zaire-GP-BirA细胞裂解液
T1 sequence: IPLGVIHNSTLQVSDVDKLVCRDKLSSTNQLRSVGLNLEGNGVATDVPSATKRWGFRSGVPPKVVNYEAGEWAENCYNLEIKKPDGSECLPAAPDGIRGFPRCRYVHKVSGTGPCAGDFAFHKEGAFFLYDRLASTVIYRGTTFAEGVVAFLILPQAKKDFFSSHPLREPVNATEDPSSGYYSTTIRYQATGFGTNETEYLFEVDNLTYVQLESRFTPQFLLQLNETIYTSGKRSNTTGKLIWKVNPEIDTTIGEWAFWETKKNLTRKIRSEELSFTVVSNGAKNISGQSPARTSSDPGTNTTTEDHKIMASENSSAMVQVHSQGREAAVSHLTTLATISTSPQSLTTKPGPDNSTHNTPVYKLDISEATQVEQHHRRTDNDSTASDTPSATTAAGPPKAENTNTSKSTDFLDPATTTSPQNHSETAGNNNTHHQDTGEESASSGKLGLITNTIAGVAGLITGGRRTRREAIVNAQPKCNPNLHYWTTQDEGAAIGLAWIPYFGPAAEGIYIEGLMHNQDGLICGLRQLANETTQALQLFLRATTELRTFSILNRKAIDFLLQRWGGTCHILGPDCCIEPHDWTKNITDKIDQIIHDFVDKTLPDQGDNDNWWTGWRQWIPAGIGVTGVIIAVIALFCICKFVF
Experiment: indirect ELISA, […] (1:300) […]

B1: S37-3 (antibody, V domains shown)
VH: EVQLQQSGPELVKPGASVKISCKASGYSFTGYFMNWVKQSHGKSLEWIGRINPYNGDTFYNQKFKGKATLTVDKSSSTAHMELLSLTSEDSAVYYCGRGLRAFLDYWGQGTTLTVSS
VL: DIVLTQSPATLSVTPGDRVSLSCRASQSISNYLHWYQQKSHESPRLLIKYASQSISGIPSRFSGSGSGTDFTLSINSVETEDFGMYFCQQSNSWPHTFGGGTKLEIK
notes: also called 单克隆抗体S37-3; S37-3上清
B1: binds.

Source: patent CN107417788A (INST PASTEUR SHANGHAI CAS, dated 2017)
